Data taken from patent publication US20140357845A1.

Target: miniHA (A/Brisbane/59/2007) (influenza A virus H1N1), A8C8J4
Test: FACS
Conditions: remark: other sources report otherwise

B1: CR6261 (antibody, V domains shown)
VH: EVQLVESGAEVKKPGSSVKVSCKASGGPFRSYAISWVRQAPGQGPEWMGGIIPIFGTTKYAPKFQGRVTITADDFAGTVYMELSSLRSEDTAMYYCAKHMGYQVRETMDVWGKGTTVTVSS
VL: QSVLTQPPSVSAAPGQKVTISCSGSSSNIGNDYVSWYQQLPGTAPKLLIYDNNKRPSGIPDRFSGSKSGTSATLGITGLQTGDEANYYCATWDRRPTAYVVFGGGTKLTVLG
In the case of B1, the % positive cells is reported as 1 to 3%.
